Data: patent publication US20050152916A1
Where “and” joins values, the source holds several entries; their conditions need not be identical. Equal values may be shown once.

Columns and labels:
[1] = target: recombinant biotinylated L^d immobilized on a support, loaded with QL9 peptide (mouse) (UniProt P01887)
[2] = target: L^d on cells loaded with QL9 peptide (mouse) (UniProt P01887)
[3] = target: 2C T-cell receptor (on T-cells of 2C TCR transgenic mice) (mouse); assay: staining of purified CD8+ lymph node cells of 2C mice
[4] = target: 2C T-cell receptor (on T-cells of 2C TCR transgenic mice) (mouse); assay: flow cytofluorometry of purified 2C TCR transgenic lymph node T-cells
[5] = target: recombinant biotinylated L^d immobilized on avidin-coated sheep red blood cells (mouse); assay: flow cytofluorometry of L^d-coated SRBC with anti-L^d antibody 30.5.7 (FIG. 8)

L^d on cells loaded with QL9 peptide (mouse), sequence (P01897 25-362, chain 1 of 2): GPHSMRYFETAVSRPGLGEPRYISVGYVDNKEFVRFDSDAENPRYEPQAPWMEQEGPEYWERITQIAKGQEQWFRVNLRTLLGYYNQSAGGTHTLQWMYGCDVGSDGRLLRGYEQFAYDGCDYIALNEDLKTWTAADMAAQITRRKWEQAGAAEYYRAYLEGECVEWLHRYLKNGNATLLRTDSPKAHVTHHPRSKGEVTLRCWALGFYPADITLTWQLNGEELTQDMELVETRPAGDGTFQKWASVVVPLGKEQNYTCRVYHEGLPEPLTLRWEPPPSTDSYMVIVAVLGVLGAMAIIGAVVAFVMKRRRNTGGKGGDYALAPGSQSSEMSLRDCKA
L^d on cells loaded with QL9 peptide (mouse), sequence (P01887 21-119, chain 2 of 2): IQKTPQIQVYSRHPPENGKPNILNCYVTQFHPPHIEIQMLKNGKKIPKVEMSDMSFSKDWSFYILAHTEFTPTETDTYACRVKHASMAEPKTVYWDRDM
recombinant biotinylated L^d immobilized on a support, loaded with QL9 peptide (mouse), sequence (P01897 25-309 limits assumed, chain 1 of 2): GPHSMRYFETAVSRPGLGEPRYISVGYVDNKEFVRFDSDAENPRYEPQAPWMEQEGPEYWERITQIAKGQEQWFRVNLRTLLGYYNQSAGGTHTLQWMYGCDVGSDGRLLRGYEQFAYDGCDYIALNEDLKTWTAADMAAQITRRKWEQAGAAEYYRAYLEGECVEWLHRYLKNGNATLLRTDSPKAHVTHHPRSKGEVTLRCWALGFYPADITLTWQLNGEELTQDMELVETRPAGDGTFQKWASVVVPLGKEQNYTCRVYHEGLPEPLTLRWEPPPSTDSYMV
recombinant biotinylated L^d immobilized on a support, loaded with QL9 peptide (mouse), sequence (P01887 21-119 limits assumed, chain 2 of 2): as the sequence (P01887 21-119, chain 2 of 2) above

Substance: 2C T-cell receptor (on T-cells of 2C TCR transgenic mice)
- percent of lymphocytes included in rosettes [1]: 30% and 40%
- percent of lymphocytes included in rosettes [2]: 30% and 40%

Substance: monoclonal antibody 1B2 (anti-clonotypic antibody to the 2C T-cell receptor)
- percent of cells positive for staining [3]: > 95%
- percent of cells positive for staining [4]: 97% and 98%

Substance: monoclonal antibody 30.5.7 (anti-L^d)
- percent of cells labeled [5]: 99.8%
